Laboratory results as given in patent publication US20130230528A1 (Novartis, published 2013).

Tests used:
[1] = target: T1, human CD40 on the cell surface (normal B cells, B-CLL cells, EBV-transformed B cells, multiple myeloma cell … (human, UniProt P25942 20-277)); assay: cell-based or functional assay
[2] = target: T1, human CD40 on the cell surface (normal …); assay: cell-based or functional assay; remark: listed apart in the source
[3] = target: T1, human CD40 on the cell surface (normal …); assay: cell-based or functional assay; remark: listed apart in the source
[4] = target: T2, human CD40, soluble / recombinant (ELISA and Biacore) (human, UniProt P25942 20-193); assay: Biacore (assay named in paragraph 181)
T2 construct: also called soluble CD40; recombinant CD40
T2 sequence (P25942 20-193): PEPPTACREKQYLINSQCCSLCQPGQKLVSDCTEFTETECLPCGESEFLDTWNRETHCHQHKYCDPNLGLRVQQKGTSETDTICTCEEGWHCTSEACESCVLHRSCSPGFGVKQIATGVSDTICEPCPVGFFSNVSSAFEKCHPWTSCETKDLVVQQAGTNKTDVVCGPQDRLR

T1 sequence (P25942 20-277): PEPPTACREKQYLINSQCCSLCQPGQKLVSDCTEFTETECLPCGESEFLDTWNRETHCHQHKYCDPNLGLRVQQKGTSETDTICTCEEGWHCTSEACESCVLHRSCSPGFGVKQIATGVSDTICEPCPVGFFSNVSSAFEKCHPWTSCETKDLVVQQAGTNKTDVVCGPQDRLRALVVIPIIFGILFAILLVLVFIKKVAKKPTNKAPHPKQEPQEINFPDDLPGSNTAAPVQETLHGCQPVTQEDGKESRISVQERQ

B1: soluble recombinant human CD40L (Alexis Corporation) (ligand)
chain: GDQNPQIAAHVISEASSKTTSVLQWAEKGYYTMSNNLVTLENGKQLTVKRQGLYYIYAQVTFCSNREASSQAPFIASLCLKSPGRFERILLRAANTHSSAKPCGQQSIHLGGVFELQPGASVFVNVTDPSQVSHGTGFTSFGLLKL
CellTiter-Glo viability, fold induction by rhsCD40L, CLL subject M1 [1]: 3.1 fold
CellTiter-Glo viability, fold induction by rhsCD40L, CLL subject M2 [1]: 2.9 fold
CellTiter-Glo viability, fold induction by rhsCD40L, CLL subject M3 [1]: 1.9 fold
CellTiter-Glo viability, fold induction by rhsCD40L, CLL subject M4 [1]: 2.3 fold
CellTiter-Glo viability, fold induction by rhsCD40L, CLL subject M5 [1]: 3.5 fold
CellTiter-Glo viability, fold induction by rhsCD40L, CLL subject M6 [1]: 2.6 fold
CellTiter-Glo viability, fold induction by rhsCD40L, CLL subject M7 [1]: 3.8 fold
CellTiter-Glo viability, fold induction by rhsCD40L, Normal B [1]: 3 fold
cPARP flow cytometry, fold inhibition by rhsCD40L, CLL subject M1 [1]: 5.8 fold
cPARP flow cytometry, fold inhibition by rhsCD40L, CLL subject M2 [1]: 2.6 fold
cPARP flow cytometry, fold inhibition by rhsCD40L, CLL subject M3 [1]: 2.1 fold
cPARP flow cytometry, fold inhibition by rhsCD40L, CLL subject M4 [1]: 3.2 fold
cPARP flow cytometry, fold inhibition by rhsCD40L, CLL subject M5 [1]: 2.3 fold
cPARP flow cytometry, fold inhibition by rhsCD40L, CLL subject M6 [1]: 0.9 fold
cPARP flow cytometry, fold inhibition by rhsCD40L, CLL subject M7 [1]: 5.2 fold
cPARP flow cytometry, fold inhibition by rhsCD40L, Normal B [1]: 3 fold

B2: CD40L on transfected, formaldehyde-fixed CHO cells (ligand)
chain: MIETYNQTSPRSAATGLPISMKIFMYLLTVFLITQMIGSALFAVYLHRRLDKIEDERNLHEDFVFMKTIQRCNTGERSLSLLNCEEIKSQFEGFVKDIMLNKEETKKENSFEMQKGDQNPQIAAHVISEASSKTTSVLQWAEKGYYTMSNNLVTLENGKQLTVKRQGLYYIYAQVTFCSNREASSQAPFIASLCLKSPGRFERILLRAANTHSSAKPCGQQSIHLGGVFELQPGASVFVNVTDPSQVSHGTGFTSFGLLKL
MCP-1 secretion, normal B cells, Donor 1, fold induction over background [2]: 5.5 fold
MCP-1 secretion, normal B cells, Donor 3, fold induction over background [2]: 1.7 fold
MIP-1β secretion, normal B cells, Donor 1, fold induction over background [2]: 2.2 fold
MIP-1β secretion, normal B cells, Donor 2, fold induction over background [2]: 2.6 fold
MIP-1β secretion, normal B cells, Donor 3, fold induction over background [2]: 17.8 fold
hIL-6 secretion, normal B cells, Donor 1, fold induction over background [2]: 5.7 fold
hIL-6 secretion, normal B cells, Donor 2, fold induction over background [2]: 3.8 fold
hIL-6 secretion, normal B cells, Donor 3, fold induction over background [2]: 20.5 fold
hIL-8 secretion, normal B cells, Donor 1, fold induction over background [2]: 7.7 fold
hIL-8 secretion, normal B cells, Donor 2, fold induction over background [2]: 14.7 fold
hIL-8 secretion, normal B cells, Donor 3, fold induction over background [2]: 49.3 fold
hIL-10 secretion, normal B cells, Donor 1, fold induction over background [2]: 3.6 fold
hIL-10 secretion, normal B cells, Donor 3, fold induction over background [2]: 3.6 fold
hTNF-α secretion, normal B cells, Donor 1, fold induction over background [2]: 3.7 fold
hTNF-α secretion, normal B cells, Donor 2, fold induction over background [2]: 4.8 fold
hTNF-α secretion, normal B cells, Donor 3, fold induction over background [2]: 22.8 fold
MCP-1 secretion, CLL cells, CLL #1, fold induction over background [3]: 5.5 fold
hGM-CSF secretion, CLL cells, CLL #1, fold induction over background [3]: 7.6 fold
hIL-8 secretion, CLL cells, CLL #1, fold induction over background [3]: 4 fold
hIL-10 secretion, CLL cells, CLL #1, fold induction over background [3]: 9.2 fold
hTNF-α secretion, CLL cells, CLL #1, fold induction over background [3]: 3.3 fold

B3: CHIR-5.9 fully human anti-CD40 monoclonal antibody (antibody, V domains shown)
VH: EVQLVQSGAEVKKPGESLKISCKGSGYSFTSYWIGWVRQMPGKGLEWMGIIYPGDSDTRYSPSFQGQVTISADKSISTAYLQWSSLKASDTAMYYCARGTAAGRDYYYYYGMDVWGQGTTVTVSS
VL: AIVMTQPPLSSPVTLGQPASISCRSSQSLVHSDGNTYLNWLQQRPGQPPRLLIYKFFRRLSGVPDRFSGSGAGTDFTLKISRVEAEDVGVYYCMQVTQFPHTFGQGTRLEIKR
notes: Human IgG1 kappa from XenoMouse hybridoma; also called mAb CHIR-5.9; 131.2F8.5.9
Kd [4]: 12 nM

B4: CHIR-12.12 fully human anti-CD40 monoclonal antibody (antibody, human IgG1, kappa, V domains shown)
VH: QVQLVESGGGVVQPGRSLRLSCAASGFTFSSYGMHWVRQAPGKGLEWVAVISYEESNRYHADSVKGRFTISRDNSKITLYLQMNSLRTEDTAVYYCARDGGIAAPGPDYWGQGTLVTVSS
VL: DIVMTQSPLSLTVTPGEPASISCRSSQSLLYSNGYNYLDWYLQKPGQSPQVLISLGSNRASGVPDRFSGSGSGTDFTLKISRVEAEDVGVYYCMQARQTPFTFGPGTKVDIRR
notes: Human IgG1 kappa from XenoMouse hybridoma; also called 153.8E2.D10.D6.12.12
Kd [4]: 0.5 nM
